In assay [1] the test system is Nogo-66, MAG and myelin action. Briefly: Blockade of Nogo-66, MAG and myelin action in vitro.
Assay [2] deals with DRG neurons, myelin-mediated inhibition of neurite outgrowth. Briefly: Neurite outgrowth assay, P3-4 rat DRG neurons, myelin mixed with test protein (Example 10). In kind it is cell-based. The following applies: mixed with CNS myelin, FIGS. 9-11. The protocol: Lab-Tek® culture slides (4 wells) were coated with 0.1 mg/ml poly-D-lysine (Sigma®). CNS myelin alone or mixed with sNogoR310, sNogoR310-Fc fusion protein, mAb 5B10 or control PBS were separately spotted as 3 μl drops. Fluorescent microspheres (Polysciences) were added to the myelin/PBS to allow later identification of the drops (Grandpre et al., Nature 403:439-444 (2000)). Lab-Tek® slides were then rinsed and coated with 10 μg/ml laminin (Gibco™).
Dorsal root ganglions (DRG's) from P3-4 Sprague Dawley rat pups were dissociated with 1 mg/ml collagenase type 1 (Worthington), triturated with fire-polished Pasteur pipettes pre-plated to enrich in neuronal cells and finally plated at 23,000 cells/well on the pre-coated Labtek culture slides. The culture medium was F12 containing 5% heat inactivated donor horse serum, 5% heat inactivated fetal bovine serum and 50 ng/ml mNGF and incubated at 37° C. and 5% CO2 for 6 hours.
Slides were fixed for 20 minutes with 4% paraformaldehyde containing 20% sucrose and stained for the neuronal marker anti beta-III-tubulin (Covance TUJ1) diluted 1:500. As secondary antibody anti-mouse Alexa Fluor® 594 (Molecular Probes) was diluted 1:300 and slides were coverslipped with Gel/Mount™ (Biømeda™). 5× digital images were acquired with OpenLab™ software and analyzed by using the MetaMorph® software for quantification of neurite outgrowth.

In assay [3] the test system is rats with dorsal hemisection of the spinal cord. Briefly: Rat spinal cord transection assay (Example 12). Type of assay: in vivo. The conditions noted are these: intrathecal pump, up to 28 days, FIG. 12. The protocol: Alzet® osmotic pumps were loaded with test solution (sNogoR310-Fc in PBS) made up freshly on the day of use. The loading concentration was calculated to be 5 and 50 μM. Pumps were primed for >40 hours at 37° C. prior to implantation into animals. Female Long Evans rats were given pre-operative analgesia and tranquilizer and anesthetized using isoflurane (3% in O2).
Rats were placed in a stereotaxic frame and the motor cortex exposed for infusion of the tract tracing agent BDA (10,000 MW) bilaterally. Rats then underwent dorsal hemisection of the spinal cord at TS-T6 followed by implantation of the intrathecal catheter and pump system to deliver test compound (n=1 per group).
Rats were allowed to recover and survive up to 28 days after surgery. Behavioral scoring using the BBB system was recorded up to 28 days after induction of injury, just prior to termination of the in-life phase of the study. […]
The Basso-Beattie-Bresnahan (BBB) locomotor rating scale (Basso et al., Neurotrauma 13:343-359 (1996)), the inclined plane test and the inclined grid walking test (Li and Strittmatter, J Neurosci. 23:4219-27 (2003)) were monitored in rats and mice after injury. For the inclined plane test, we measured the maximal angle to which a 50 cm×60 cm board could be angled for 5 sec without the mouse sliding off. […]

For assay [4], the system named is rats with mid-thoracic dorsal hemisection injury. Description: Intrathecal sNogoR310-Fc in rats with dorsal hemisection: behavioral tests. Type of assay: in vivo, rat. An excerpt:
The Basso-Beattie-Bresnahan (BBB) locomotor rating scale (Basso et al., Neurotrauma 13:343-359 (1996)), the inclined plane test and the inclined grid walking test (Li and Strittmatter, J Neurosci. 23:4219-27 (2003)) were monitored in rats and mice after injury. For the inclined plane test, we measured the maximal angle to which a 50 cm×60 cm board could be angled for 5 sec without the mouse sliding off. For inclined grid walking, the mice were trained to climb a wire grid (35 cm long with 2.54 cm squares) at a slope of 45 degrees. The number of instances in which the hindpaw dropped below the grid plane was scored for each excursion from bottom to top. For the rat behavioral testing, BBB locomotor scale, grid walking and footprint analysis were performed. For grid walking, the rats were trained to walk on a wire grid (70 cm long with 2.54 an squares), and the number of instances in which the hindpaw dropped below the grid plane was counted. For footprint analysis, the walking patterns of rat hindpaws were recorded with ink during a continuous locomotion across a 90 cm runway, and stride length on each side and stride width were calculated (Metz et al., Brain Res. 883:165-177 (2000)). All of these behavioral tests were performed by at least two individuals. Throughout the surgery, behavioral testing and histologic analysis, researchers were blind to the identity of the compound in the minipump.
We deeply anaesthetized female Sprague-Dawley rats (190-250 g) and conducted laminectomies at spinal levels of T6-7, exposing the spinal cord. We cut the dorsal half of the spinal cord with a 30-gauge needle and a pair of microscissors to sever the dorsal parts of CSGT tracts, and assured the depth of the lesion (1.8 mm) by passing the sharp part of a number 11 blade across the dorsal half of the cord (Grandpre et al., Nature 417:547-551 (2002)). An osmotic minipump (Alzet® 2ML4, 2 ml volume, 2.5 μl/h, 28 day delivery), which was filled with 1.2 mg rat IgG in PBS or 1.2 mg sNogoR310-Fc fusion protein in PBS, was sutured to muscles under the skin on the back of the animals. […]

Assay [5] has the same test system. Description: Intrathecal sNogoR310-Fc in rats with mid-thoracic dorsal hemisection: axon tracing and histology. Type of assay: in vivo, rat. An excerpt:
We isolated spinal cord 4 mm rostral to and 4 mm caudal to the lesion site (8 mm long in total) from transgenic mice and embedded it in a glutaraldehyde-polymerized albumin matrix, and cut parasagittally on a vibratome (30 μm thick). We collected transverse sections (50 μm) from the spinal cord 5-7 mm rostral to and 5-7 mm caudal to the injury site. For sNogoR310-Fc injection experiments in rats, the spinal cord extending from 10 mm rostral to 10 mm caudal from the lesion site was cut parasaggitally (50 μm) on a vibrating microtome. Transverse sections were collected from the spinal cord 11-16 mm rostral to and 11-16 mm caudal to the injury site. We incubated the sections with avidin-biotin-peroxidase complex and visualized the BDA tracer by nickel-enhanced diaminobenzidine HRP reaction (Grandpre, Nature 417:547-551 (2002)). We processed some sections for serotonin immunohistochemistry (anti-5-HT antibody) by indirect immunofluorescence. To visualize the lesion area, we double-stained some sections with antibodies directed against GFAP (Sigma®, St. Louis, Mo.). We mounted, dehydrated and covered the sections with mounting medium.
We fused the ligand binding domain (27-310) of rat Nogo receptor-1 to the rat IgG1 Fc domain to promote stability and purification. We purified protein from stably transfected CHO cells. This protein blocks Nogo-66, MAG and myelin action in vitro, as shown previously for mouse sNogoR310-Myc His (Fournier et al., J Neurosci. 22:8876-8883 (2002); Liu et al., Science 297:1190-1193 (2002)). We delived sNogoR310-Fc protein intrathecally to rats with a mid-thoracic dorsal hemisection injury through an osmotic minipump. During a four-week survival period after injury, 1.2 mg sNogoR310-Fc protein was locally administered in each rat. In rats receiving the vehicle treatment (1.2 mg rat IgG), sections rostral to hemisection display the tightly bundled prominent dorsal CST and very few ectopic BDA-labeled CST fibers above the lesion site. […] Numerous ectopic fibers sprouting from the BDA-labeled CST are observed from transverse and parasagittal sections. In some cases, projections cross from the dCST area near the midline to the circumference of the cord, becoming intermingled with the dorsolateral CST. The sprouting axons extend though gray matter to a greater extent than white matter.
We deeply anaesthetized female Sprague-Dawley rats (190-250 g) and conducted laminectomies at spinal levels of T6-7, exposing the spinal cord. We cut the dorsal half of the spinal cord with a 30-gauge needle and a pair of microscissors to sever the dorsal parts of CSGT tracts, and assured the depth of the lesion (1.8 mm) by passing the sharp part of a number 11 blade across the dorsal half of the cord (Grandpre et al., Nature 417:547-551 (2002)). An osmotic minipump (Alzet® 2ML4, 2 ml volume, 2.5 μl/h, 28 day delivery), which was filled with 1.2 mg rat IgG in PBS or 1.2 mg sNogoR310-Fc fusion protein in PBS, was sutured to muscles under the skin on the back of the animals. A catheter connected to the outlet of the minipump was inserted into the intrathecal space of the spinal cord at the T7-8 level through a small hole in the dura.
Fourteen days after hemisection, a burr hole was made on each side of the skull overlying the sensorimotor cortex of the lower limbs to trace CST fibers. The anterograde neuronal tracer BDA (10% in PBS, 3.5 μl per cortex) was applied at seven injection sites at a depth of 1.5 mm from dura on each side (Grandpre et al., Nature 417:547-551 (2002)). For rubrospinal tract tracing in rats, the tracer BDA (1 μl; MW 10,000; 10% in PBS) was injected into red nucleus on the left side (5.8 mm posterior to bregma, 0.7 mm lateral, 7.0 mm ventral to the skull surface). Two weeks after BDA injection, these animals were perfused with PBS, followed by 4% paraformaldehyde, and tissue was collected for histology.

B1: sNogoR310-Fc: fusion protein comprising amino acids 26-310 of rat Nogo receptor-1 and a rat Fc fragment (protein)
chain: PCPGACVCYNEPKVTTSRPQQGLQAVPAGIPASSQRIFLHGNRISYVPAASFQSCRNLTILWLHSNALAGIDAAAFTGLTLLEQLDLSDNAQLRVVDPTTFRGLGHLHTLHLDRCGLQELGPGLFRGLAALQYLYLQDNNLQALPDNTFRDLGNLTHLFLHGNRIPSVPEHAFRGLHSLDRLLLHQNHVARVHPHAFRDLGRLMTLYLFANNLSMLPAEVLVPLRSLQYLRLNDNPWVCDCRARPLWAWLQKFRGSSSGVPSNLPQRLAGRDLKRLATSDLEGCA
modifications: left off: a dimerising Fc or GST
notes: fusion protein comprising amino acids 26-310 of rat Nogo receptor-1 and a rat Fc fragment
For the molecule B1, the “blocks Nogo-66, MAG and myelin action in vitro” value in assay [1] is given as “blocks”. Further, the “protection of DRG neurons from myelin-mediated inhibition of neurite outgrowth” value in assay [2] was “protected”. Besides, the “functional recovery (BBB score)” value in assay [3] is recorded as “promoted functional recovery”. Also, in assay [4] (2-4 weeks post-injury, on average), the grid walking errors is 4-7 /session. The “locomotor BBB score” value in assay [4] (2-4 weeks post-trauma) is on record as “continues to improve”. Further, the “animals with consistent forelimb-hindlimb coordination and parallel paw position” value in assay [4] (4 weeks after injury, 9 treated animals) was 9. Moreover, the “BDA-labeled axons from sagittal sections” value in assay [5] (1-2 mm caudal to lesion, each rat) is listed as “approximately 20”. Further, the number of sprouts in assay [5] (1-10 mm caudal) is approximately 50 sprouts/rat. In assay [5] (7-8 mm distal to lesion, each rat), the “traced axons from sagittal sections” value was approximately 15. The “serotonin fibers relative to control group” value in assay [5] (11-15 mm below the lesion) is recorded as “twice as numerous”. For the same molecule, the “density of serotonergic fibers vs vehicle” value in assay [5] (11-15 mm rostral to lesion) was “similar”. Moreover, in assay [5] (distal spinal cord), the “total collateral length of each sprout relative to NEP 1-40-treated animals” value is listed as “twice as great”. The “ectopic sprouting fibers adjacent to the dCST” value in assay [5] (rostral to lesion, 1.2 mg intrathecal over four weeks) is recorded as “greater increase”. Moreover, the “average number of BDA-labeled CST fibers relative to vehicle-treated rats” value in assay [5] (transverse sections 11-15 mm caudal to hemisection) is “approximately 20 fold”. Besides, the “BDA-labeled RST fibers” value in assay [5] (transverse sections 11-15 mm distal to SCI) is listed as “many BDA-labeled RST fibers”.

For the origin of these results see patent publication US9228015B2, “Nogo receptor antagonists and methods of increasing neurite outgrowth” (Biogen Idec MA Inc., priority 2006, dated 2016).
